Experimental data taken from publication PMC7841161, “APE1 distinguishes DNA substrates in exonucleolytic cleavage by induced space-filling”.

Assays:
mAPE1 full-length [1] = target: T1, mAPE1 full-length (mouse, UniProt P28352 1-317); assay: EMSA; 50 mM EDTA; complex visible at 1 uM mAPE1; EMSA: 50 mM EDTA, 20 mM Tris-HCl pH 7.0, 120 mM NaCl, on ice 10 min + 10 min, FAM-labeled substrates, TBE native gel; details: protein: recombinant, label: FAM
mAPE1 full-length [2] = target: T1, mAPE1 full-length; assay: EMSA; 50 mM EDTA; weak low-MW complex seen; EMSA: 50 mM EDTA, 20 mM Tris-HCl pH 7.0, 120 mM NaCl, on ice 10 min + 10 min, FAM-labeled substrates, TBE native gel; details: protein: recombinant; label: FAM; 3 strands, nick between strands 1 and 2
[3] = target: mAPE1 in blunt-ended crystal (mouse, UniProt P28352 40-317); assay: X-ray crystallography; product complex; EMSA: 50 mM EDTA, 20 mM Tris-HCl pH 7.0, 120 mM NaCl, on ice 10 min + 10 min, FAM-labeled substrates, TBE native gel; details: protein: recombinant; chain copies: 2; 2 copies of one strand, 1-nt 5' overhangs; central A-A from self-pairing
mAPE1 in blunt-ended crystal, sequence (P28352 40-317): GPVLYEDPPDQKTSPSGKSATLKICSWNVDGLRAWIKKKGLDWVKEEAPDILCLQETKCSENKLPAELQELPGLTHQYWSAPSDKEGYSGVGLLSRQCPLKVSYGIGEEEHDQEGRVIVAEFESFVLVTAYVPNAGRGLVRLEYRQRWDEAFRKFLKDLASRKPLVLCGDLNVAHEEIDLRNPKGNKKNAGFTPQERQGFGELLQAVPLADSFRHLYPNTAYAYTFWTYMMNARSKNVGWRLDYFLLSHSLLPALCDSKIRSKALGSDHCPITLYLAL

[4] = target: mAPE1 in recessed crystal (mouse, UniProt P28352 31-317); assay: as above; details: protein: recombinant; 2 copies of one strand, 2-nt 5' overhangs; central A-A from self-pairing
mAPE1 in recessed crystal, sequence (P28352 31-317): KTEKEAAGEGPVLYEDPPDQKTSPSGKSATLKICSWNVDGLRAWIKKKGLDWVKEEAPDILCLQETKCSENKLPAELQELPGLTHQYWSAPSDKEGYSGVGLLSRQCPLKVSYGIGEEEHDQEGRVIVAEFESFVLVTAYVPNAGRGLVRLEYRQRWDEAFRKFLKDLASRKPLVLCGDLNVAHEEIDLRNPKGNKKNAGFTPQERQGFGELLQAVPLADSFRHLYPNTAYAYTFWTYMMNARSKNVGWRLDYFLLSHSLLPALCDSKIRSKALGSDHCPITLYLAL

mAPE1 full-length [5] = target: T1, mAPE1 full-length; assay: EMSA; 50 mM EDTA; similar to blunt; EMSA: 50 mM EDTA, 20 mM Tris-HCl pH 7.0, 120 mM NaCl, on ice 10 min + 10 min, FAM-labeled substrates, TBE native gel; details: protein: recombinant, label: FAM
mAPE1 full-length [6] = target: T1, mAPE1 full-length; assay: EMSA; 50 mM EDTA; mostly complexed at 5 uM, stronger than blunt; EMSA: 50 mM EDTA, 20 mM Tris-HCl pH 7.0, 120 mM NaCl, on ice 10 min + 10 min, FAM-labeled substrates, TBE native gel; details: protein: recombinant; label: FAM; 5' overhang 20 nt on strand 2
mAPE1 full-length [7] = target: T1, mAPE1 full-length; assay: EMSA; 50 mM EDTA; extra low-MW complex at 0.5 uM, higher affinity than ends; EMSA: 50 mM EDTA, 20 mM Tris-HCl pH 7.0, 120 mM NaCl, on ice 10 min + 10 min, FAM-labeled substrates, TBE native gel; details: protein: recombinant; label: FAM; 3 strands, 1-nt gap between strands 1 and 2

T1 sequence (P28352 whole entry): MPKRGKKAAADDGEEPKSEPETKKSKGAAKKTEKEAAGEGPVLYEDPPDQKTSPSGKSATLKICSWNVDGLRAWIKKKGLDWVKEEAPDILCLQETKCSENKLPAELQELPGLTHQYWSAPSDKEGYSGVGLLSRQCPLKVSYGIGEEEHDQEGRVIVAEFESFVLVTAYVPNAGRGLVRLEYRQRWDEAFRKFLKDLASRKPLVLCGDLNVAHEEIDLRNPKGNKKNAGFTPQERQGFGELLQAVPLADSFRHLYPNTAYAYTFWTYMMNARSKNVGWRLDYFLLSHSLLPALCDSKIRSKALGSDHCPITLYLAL

B1: blunt-ended dsDNA 20 bp (dsDNA)
DNA 1: ACTGGACAAATACTCCGAGG
DNA 2: CCTCGGAGTATTTGTCCAGT
- binding result (mAPE1 full-length [1]; blunt): binds

B2: nicked dsDNA 40 mer 5'-OH (dsDNA)
DNA 1: ACTGGACAAATACTCCGAGG
DNA 2: GTGATTAGTGAAGCGTGCTC
DNA 3: GAGCACGCTTCACTAATCACCCTCGGAGTATTTGTCCAGT
modifications: 5'-OH at nick
- binding result (mAPE1 full-length [2]): binds

B3: blunt-ended dsDNA product (crystal) (dsDNA)
DNA 1: CGTAATAC
DNA 2: CGTAATAC
- binding result [3]: binds

B4: recessed dsDNA product (crystal) (dsDNA)
DNA 1: GCGTAATAC
DNA 2: GCGTAATAC
- binding result [4]: binds

B5: dsDNA 20 mer 1 nt mismatch (dsDNA)
DNA 1: ACTGGACAAATACTCCGAGG
DNA 2: ACTCGGAGTATTTGTCCAGT
- binding result (mAPE1 full-length [5]; 1 nt mismatch at 3' end of strand 1): binds

B6: dsDNA 20 mer 2 nt mismatch (dsDNA)
DNA 1: ACTGGACAAATACTCCGAGG
DNA 2: AATCGGAGTATTTGTCCAGT
- binding result (mAPE1 full-length [5]; 2 nt mismatch at 3' end of strand 1): binds

B7: recessed dsDNA 5 nt 5' overhang (dsDNA)
DNA 1: ACTGGACAAATACTCCGAGG
DNA 2: ATCACCCTCGGAGTATTTGTCCAGT
- binding result (mAPE1 full-length [1]; 5' overhang 5 nt on strand 2): binds

B8: recessed dsDNA 20 nt 5' overhang (dsDNA)
DNA 1: ACTGGACAAATACTCCGAGG
DNA 2: B2 DNA 3
- binding result (mAPE1 full-length [6]): binds

B9: 1-nt gapped dsDNA 40 mer, matched (dsDNA)
DNA 1: ACTGGACAAATACTCCGAGG
DNA 2: TGATTAGTGAAGCGTGCTC
DNA 3: B2 DNA 3
modifications: 5'-OH or 5'-phosphate at gap margin (not stated which for EMSA)
- binding result (mAPE1 full-length [7]): binds
